# Results as given in publication doi:10.1101/2022.04.12.488087 (bioRxiv, 2022).
# B1: nanobody Nb70 (VHH with 6xHis tag, for crystal structural analysis) (VHH)
# VHH: QVQLVESGGGLVQAGGSLRLSCVASGRTFSRYAMGWFRQAPGKEREFVAVIEWDGGTSYYVDSVKGRFTISRDNAKNTVYLQMNSLKPEDTAVYYCAAGGNQYYSATYSIWNEYDFWGQGTQVTVSS
# Target: SARS-CoV-1 wild type RBD (SARS-CoV-1 (P59594 / NP_828851.1, …))
# Experiment: crystal structure
binder,measurement,value
B1,binding result,binds
